From the supplement of paper PMC5998384

Tests used:
HeLa Kyoto [1] = experiment: solubility change mitosis vs G1/S (difference of NP-40 vs SDS log2 ratios) (log2 ratio difference); higher = more soluble in mitosis
HeLa Kyoto [2] = experiment: solubility in G1/S (NP-40 vs SDS abundance) (log2 ratio); higher = more soluble; settings: cell cycle stage: G1/S
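Throughout, for solubility change mitosis vs G1/S (difference of NP-40 vs SDS log2 ratios): synchronized HeLa Kyoto cells (double thymidine block for G1/S, nocodazole release for mitosis), protein amounts in NP-40 versus SDS lysates quantified by mass spectrometry, three biological replicates.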
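Throughout, for solubility in G1/S (NP-40 vs SDS abundance): HeLa Kyoto cells arrested at G1/S by double thymidine block, proteins quantified by TMT10plex mass spectrometry in mild NP-40 versus SDS extracts, three biological replicates.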

TFAP2A, sequence (chain, as listed by the source): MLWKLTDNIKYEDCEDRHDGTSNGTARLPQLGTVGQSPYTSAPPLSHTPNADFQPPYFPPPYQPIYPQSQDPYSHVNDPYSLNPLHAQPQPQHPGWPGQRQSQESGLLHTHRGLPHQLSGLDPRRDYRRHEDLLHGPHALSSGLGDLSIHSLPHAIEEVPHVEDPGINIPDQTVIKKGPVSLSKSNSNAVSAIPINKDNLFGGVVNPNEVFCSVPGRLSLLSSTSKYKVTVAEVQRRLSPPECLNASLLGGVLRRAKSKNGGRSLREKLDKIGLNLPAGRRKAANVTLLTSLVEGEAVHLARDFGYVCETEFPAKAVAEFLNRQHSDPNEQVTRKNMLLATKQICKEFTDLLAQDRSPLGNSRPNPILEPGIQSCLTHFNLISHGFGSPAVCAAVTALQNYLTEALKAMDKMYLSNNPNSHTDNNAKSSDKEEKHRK
DGKZ, sequence (chain, as listed by the source): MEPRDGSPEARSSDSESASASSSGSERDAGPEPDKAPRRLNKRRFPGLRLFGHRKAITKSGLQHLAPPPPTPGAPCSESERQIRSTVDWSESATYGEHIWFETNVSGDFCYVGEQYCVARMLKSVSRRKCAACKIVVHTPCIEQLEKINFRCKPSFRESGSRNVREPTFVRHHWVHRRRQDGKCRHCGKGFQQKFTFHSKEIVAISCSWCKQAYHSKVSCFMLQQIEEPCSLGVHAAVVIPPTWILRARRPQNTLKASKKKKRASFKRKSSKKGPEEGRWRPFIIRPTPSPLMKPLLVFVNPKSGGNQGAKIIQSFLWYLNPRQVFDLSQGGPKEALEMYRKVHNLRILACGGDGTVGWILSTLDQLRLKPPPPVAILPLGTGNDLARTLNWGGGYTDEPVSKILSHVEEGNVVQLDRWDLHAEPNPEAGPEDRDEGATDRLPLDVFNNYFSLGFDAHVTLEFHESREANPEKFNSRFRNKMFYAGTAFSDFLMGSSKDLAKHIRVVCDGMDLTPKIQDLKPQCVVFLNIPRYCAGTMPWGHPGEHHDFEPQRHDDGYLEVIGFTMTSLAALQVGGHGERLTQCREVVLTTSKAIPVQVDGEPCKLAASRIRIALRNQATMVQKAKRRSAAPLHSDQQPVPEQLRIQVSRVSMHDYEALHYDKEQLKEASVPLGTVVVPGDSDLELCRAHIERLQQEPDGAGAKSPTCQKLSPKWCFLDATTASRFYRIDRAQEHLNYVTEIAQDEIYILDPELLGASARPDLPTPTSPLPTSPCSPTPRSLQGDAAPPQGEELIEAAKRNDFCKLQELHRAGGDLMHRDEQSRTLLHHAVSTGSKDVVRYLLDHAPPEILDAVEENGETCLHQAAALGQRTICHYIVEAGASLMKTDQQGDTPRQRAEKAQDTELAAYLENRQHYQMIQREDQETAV

Substance	solubility change mitosis (log2) (HeLa Kyoto [1])	solubility in G1/S (log2) (HeLa Kyoto [2])
MASKRKSTTPCMIPVKTVVLQDASMEAQPAETLPEGPQQDLPPEASAASSEAAQNPSSTDGSTLANGHRSTLDGYLYSCKYCDFRSHDMTQFVGHMNSEHTDFNKDPTFVCSGCSFLAKTPEGLSLHNATCHSGEASFVWNVAKPDNHVVVEQSIPESTSTPDLAGEPSAEGADGQAEIIITKTPIMKIMKGKAEAKKIHTLKENVPSQPVGEALPKLSTGEMEVREGDHSFINGAVPVSQASASSAKNPHAANGPLIGTVPVLPAGIAQFLSLQQQPPVHAQHHVHQPLPTAKALPKVMIPLSSIPTYNAAMDSNSFLKNSFHKFPYPTKAELCYLTVVTKYPEEQLKIWFTAQRLKQGISWSPEEIEDARKKMFNTVIQSVPQPTITVLNTPLVASAGNVQHLIQAALPGHVVGQPEGTGGGLLVTQPLMANGLQATSSPLPLTVTSVPKQPGVAPINTVCSNTTSAVKVVNAAQSLLTACPSITSQAFLDASIYKNKKSHEQLSALKGSFCRNQFPGQSEVEHLTKVTGLSTREVRKWFSDRRYHCRNLKGSRAMIPGDHSSIIIDSVPEVSFSPSSKVPEVTCIPTTATLATHPSAKRQSWHQTPDFTPTKYKERAPEQLRALESSFAQNPLPLDEELDRLRSETKMTRREIDSWFSERRKKVNAEETKKAEENASQEEEEAAEDEGGEEDLASELRVSGENGSLEMPSSHILAERKVSPIKINLKNLRVTEANGRNEIPGLGACDPEDDESNKLAEQLPGKVSCKKTAQQRHLLRQLFVQTQWPSNQDYDSIMAQTGLPRPEVVRWFGDSRYALKNGQLKWYEDYKRGNFPPGLLVIAPGNRELLQDYYMTHKMLYEEDLQNLCDKTQMSSQQVKQWFAEKMGEETRAVADTGSEDQGPGTGELTAVHKGMGDTYSEVSENSESWEPRVPEASSEPFDTSSPQAGRQLETD [ZHX3]	-0.0607	0.105
DGKZ	0.323	0.0613
MGAAAAEADRTLFVGNLETKVTEELLFELFHQAGPVIKVKIPKDKDGKPKQFAFVNFKHEVSVPYAMNLLNGIKLYGRPIKIQFRSGSSHAPQDVSLSYPQHHVGNSSPTSTSPSRYERTMDNMTSSAQIIQRSFSSPENFQRQAVMNSALRQMSYGGKFGSSPLDQSGFSPSVQSHSHSFNQSSSSQWRQGTPSSQRKVRMNSYPYLADRHYSREQRYTDHGSDHHYRGKRDDFFYEDRNHDDWSHDYDNRRDSSRDGKWRSSRH [RBM7]	0.189	0.568
MSFKREGDDWSQLNVLKKRRVGDLLASYIPEDEALMLRDGRFACAICPHRPVLDTLAMLTAHRAGKKHLSSLQLFYGKKQPGKERKQNPKHQNELRREETKAEAPLLTQTRLITQSALHRAPHYNSCCRRKYRPEAPGPSVSLSPMPPSEVKLQSGKISREPEPAAGPQAEESATVSAPAPMSPTRRRALDHYLTLRSSGWIPDGRGRWVKDENVEFDSDEEEPPDLPLD [SCNM1]	0.462	0.0519
ALPK2	0.00635	-0.117
MPVERMRMRPWLEEQINSNTIPGLKWLNKEKKIFQIPWMHAARHGWDVEKDAPLFRNWAIHTGKHQPGVDKPDPKTWKANFRCAMNSLPDIEEVKDKSIKKGNNAFRVYRMLPLSERPSKKGKKPKTEKEDKVKHIKQEPVESSLGLSNGVSDLSPEYAVLTSTIKNEVDSTVNIIVVGQSHLDSNIENQEIVTNPPDICQVVEVTTESDEQPVSMSELYPLQISPVSSYAESETTDSVPSDEESAEGRPHWRKRNIEGKQYLSNMGTRGSYLLPGMASFVTSNKPDLQVTIKEESNPVPYNSSWPPFQDLPLSSSMTPASSSSRPDRETRASVIKKTSDITQARVKSC [IRF2]	0.0622	0.0934
MVTNKMTAAFRNPSGKQVATDKVAEKLSSTLSWVKNTVSHTVSQMASQVASPSTSLHTTSSSTTLSTPALSPSSPSQLSPDDLELLAKLEEQNRLLETDSKSLRSVNGSRRNSGSSLVSSSSASSNLSHLEEDSWILWGRIVNEWEDVRKKKEKQVKELVHKGIPHHFRAIVWQLLCSAQSMPIKDQYSELLKMTSPCEKLIRRDIARTYPEHNFFKEKDSLGQEVLFNVMKAYSLVDREVGYCQGSAFIVGLLLMQMPEEEAFCVFVKLMQDYRLRELFKPSMAELGLCMYQFECMIQEHLPELFVHFQSQSFHTSMYASSWFLTIFLTTFPLPIATRIFDIFMSEGLEIVFRVGLALLQMNQAELMQLDMEGMLQHFQKVIPHQFDGVPDKLIQAAYQVKYNSKKMKKLEKEYTTIKTKEMEEQVEIKRLRTENRLLKQRIETLEKHKCSSNYNEDFVLQLEKELVQARLSEAESQCALKEMQDKVLDIEKRNNSLPDENNIARLQEELIAVKLREAEAIMGLKELRQQVKDLEEHWQRHLARTTGRWKDPPKKNAMNELQDELMTIRLREAETQAEIREIKQRMMEMETQNQINSNHLRRAEQEVISLQEKVQYLSAQNKGLLTQLSEAKRKQAEIECKNKEEVMAVRLREADSIAAVAELRQHIAELEIQKEEGKLQGQLNKSDSNQYIGELKDQIAELNHELRCLKGQRGFSGQPPFDGIHIVNHLIGDDESFHSSDEDFIDNSLQETGVGFPLHGKSGSMSLDPAVADGSESETEDSVLETRESNQVVQKERPPRRRESYSTTV [EVI5]	-0.288	0.129
MSELKDCPLQFHDFKSVDHLKVCPRYTAVLARSEDDGIGIEELDTLQLELETLLSSASRRLRVLEAETQILTDWQDKKGDRRFLKLGRDHELGAPPKHGKPKKQKLEGKAGHGPGPGPGRPKSKNLQPKIQEYEFTDDPIDVPRIPKNDAPNRFWASVEPYCADITSEEVRTLEELLKPPEDEAEHYKIPPLGKHYSQRWAQEDLLEEQKDGARAAAVADKKKGLMGPLTELDTKDVDALLKKSEAQHEQPEDGCPFGALTQRLLQALVEENIISPMEDSPIPDMSGKESGADGASTSPRNQNKPFSVPHTKSLESRIKEELIAQGLLESEDRPAEDSEDEVLAELRKRQAELKALSAHNRTKKHDLLRLAKEEVSRQELRQRVRMADNEVMDAFRKIMAARQKKRTPTKKEKDQAWKTLKERESILKLLDG [TADA3]	0.286	0.646
TFAP2A	0.505	0.185
MSISLSSLILLPIWINMAQIQQGGPDEKEKTTALKDLLSRIDLDELMKKDEPPLDFPDTLEGFEYAFNEKGQLRHIKTGEPFVFNYREDLHRWNQKRYEALGEIITKYVYELLEKDCNLKKVSIPVDATESEPKSFIFMSEDALTNPQKLMVLIHGSGVVRAGQWARRLIINEDLDSGTQIPFIKRAVAEGYGVIVLNPNENYIEVEKPKIHVQSSSDSSDEPAEKRERKDKVSKETKKRRDFYEKYRNPQREKEMMQLYIRENGSPEEHAIYVWDHFIAQAAAENVFFVAHSYGGLAFVELMIQREADVKNKVTAVALTDSVHNVWHQEAGKTIREWMRENCCNWVSSSEPLDTSVESMLPDCPRVSAGTDRHELTSWKSFPSIFKFFTEASEAKTSSLKPAVTRRSHRIKHEEL [FAM172A]	-0.00146	0.202
MTPVRMQHSLAGQTYAVPLIQPDLRREEAVQQMADALQYLQKVSGDIFSRISQQVEQSRSQVQAIGEKVSLAQAKIEKIKGSKKAIKVFSSAKYPAPERLQEYGSIFTGAQDPGLQRRPRHRIQSKHRPLDERALQEKLKDFPVCVSTKPEPEDDAEEGLGGLPSNISSVSSLLLFNTTENLYKKYVFLDPLAGAVTKTHVMLGAETEEKLFDAPLSISKREQLEQQVPENYFYVPDLGQVPEIDVPSYLPDLPGIANDLMYIADLGPGIAPSAPGTIPELPTFHTEVAEPLKVDLQDGVLTPPPPPPPPPPAPEVLASAPPLPPSTAAPVGQGARQDDSSSSASPSVQGAPREVVDPSGGRATLLESIRQAGGIGKAKLRSMKERKLEKKKQKEQEQVRATSQGGHLMSDLFNKLVMRRKGISGKGPGAGEGPGGAFARVSDSIPPLPPPQQPQAEEDEDDWES [WASH2P]	0.0339	0.453
